Read-outs that look alike come from different tables or passages of the source. One block for each binder: values may come before it. Where no end group is shown, it is not given here.
Columns and labels:
Cyno TROP2 Full length = target: T1, Cyno TROP2 Full length (cynomolgus monkey, UniProt P09758 31-323 (human entry)); assay: cell-based or functional assay
T1 chain: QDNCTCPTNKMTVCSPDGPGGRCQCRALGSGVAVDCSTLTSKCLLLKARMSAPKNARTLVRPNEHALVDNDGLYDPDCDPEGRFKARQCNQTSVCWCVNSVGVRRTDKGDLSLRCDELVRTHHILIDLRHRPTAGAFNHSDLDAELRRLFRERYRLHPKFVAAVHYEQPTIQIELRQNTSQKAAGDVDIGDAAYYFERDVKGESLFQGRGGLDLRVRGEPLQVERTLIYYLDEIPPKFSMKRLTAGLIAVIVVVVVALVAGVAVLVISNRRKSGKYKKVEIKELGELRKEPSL

Human TROP2 Full length = target: T2, Human TROP2 Full length (human, UniProt P09758 31-323); assay: cell-based or functional assay
T2 sequence: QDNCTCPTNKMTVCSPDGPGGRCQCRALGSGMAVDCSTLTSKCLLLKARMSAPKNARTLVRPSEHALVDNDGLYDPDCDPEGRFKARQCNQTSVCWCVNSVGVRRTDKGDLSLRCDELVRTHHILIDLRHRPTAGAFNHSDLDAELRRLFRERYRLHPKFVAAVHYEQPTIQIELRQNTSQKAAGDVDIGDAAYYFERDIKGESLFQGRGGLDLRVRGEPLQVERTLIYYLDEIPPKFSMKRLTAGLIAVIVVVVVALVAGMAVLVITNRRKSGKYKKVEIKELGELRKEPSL

[1] = target: T3, Human TROP2 ECD (31-274 AA), biotinylated (human, UniProt P09758 31-274, biotinylated (site not stated)); assay: ELISA on immobilized TROP2; binder pre-treated with MTSP1
T3 construct: also called tumor-associated calcium signal transducer 2; Human TROP2-biotin
T3 sequence: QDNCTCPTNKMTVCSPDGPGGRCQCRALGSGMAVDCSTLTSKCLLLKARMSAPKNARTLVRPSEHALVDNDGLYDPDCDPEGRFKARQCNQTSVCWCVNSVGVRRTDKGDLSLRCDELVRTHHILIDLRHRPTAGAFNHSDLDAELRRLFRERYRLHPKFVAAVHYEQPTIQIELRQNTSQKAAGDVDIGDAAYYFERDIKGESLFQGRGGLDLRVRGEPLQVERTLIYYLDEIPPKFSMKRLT

[2] = target: T3, Human TROP2 ECD (31-274 AA), …; assay: as above; remark: listed apart in the source
[3] = target: T4, CD3 (biotinylated CD3 antigen) (human, UniProt P07766 23-126, limits assumed, biotinylated (site not stated)); assay: ELISA, TCE on captured biotin-CD3
T4 construct: also called CD3ε; human CD3
T4 sequence (P07766 23-126 limits assumed): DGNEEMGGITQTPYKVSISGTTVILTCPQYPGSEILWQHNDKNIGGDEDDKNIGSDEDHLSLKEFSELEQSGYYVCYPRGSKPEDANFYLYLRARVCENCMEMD

Peptide-67 = target: T5, Peptide-67 (cysteine pairing not given here; also: biotinylated, site not given here); assay: ELISA, TCE on captured biotin-peptide
T5 construct: mask peptide for the CD3 scFv
T5 peptide: VYCGPEFDESVGCM

Peptide-69 = target: T6, Peptide-69 (cysteine pairing not given here; also: biotinylated, site not given here); assay: ELISA, TCE on captured biotin-peptide
T6 construct: mask peptide for the CD3 scFv
T6 peptide: SECLVDLQSDPCYW

Peptide-68 = target: T7, Peptide-68 (cysteine pairing not given here; also: biotinylated, site not given here); assay: ELISA, TCE on captured biotin-peptide
T7 construct: mask peptide for the CD3 scFv
T7 peptide: DWCWYSPDNDGLCD

Peptide-71 = target: T8, Peptide-71 (cysteine pairing not given here; also: biotinylated, site not given here); assay: ELISA, TCE on captured biotin-peptide
T8 construct: mask peptide for the CD3 scFv
T8 peptide: VDCGPDGDESILCY

Peptide-72 = target: T9, Peptide-72 (cysteine pairing not given here; also: biotinylated, site not given here); assay: ELISA, TCE on captured biotin-peptide
T9 construct: mask peptide for the CD3 scFv
T9 peptide: AYCGPEFDESVGCM

Peptide-66 = target: T10, Peptide-66 (cysteine pairing not given here; also: biotinylated, site not given here); assay: ELISA, TCE on captured biotin-peptide
T10 construct: mask peptide for the CD3 scFv
T10 peptide: GSQCLGPEWEVCPY

Peptide-75 = target: T11, Peptide-75 (cysteine pairing not given here; also: biotinylated, site not given here); assay: ELISA, TCE on captured biotin-peptide
T11 construct: mask peptide for the CD3 scFv
T11 peptide: GSACLGPEWEVCPY

Peptide-65 = target: T12, Peptide-65 (cysteine pairing not given here; also: biotinylated, site not given here); assay: ELISA, TCE on captured biotin-peptide
T12 construct: mask peptide for the CD3 scFv
T12 peptide: QGCGTIADPEPHCW

Peptide-74 = target: T13, Peptide-74 (cysteine pairing not given here; also: biotinylated, site not given here); assay: ELISA, TCE on captured biotin-peptide
T13 construct: mask peptide for the CD3 scFv
T13 peptide: ASQCLGPEWEVCPY

B2: PC-5 + MTSP1 (bispecific antibody)
light: DIQLTQSPSSLSASVGDRVSITCKASQDVSIAVAWYQQKPGKAPKLLIYSASYRYTGVPDRFSGSGSGTDFTLTISSLQPEDFAVYYCQQHYITPLTFGAGTKVEIKRTVAAPSVFIFPPSDEQLKSGTASVVCLLNNFYPREAKVQWKVDNALQSGNSQESVTEQDSKDSTYSLSSTLTLSKADYEKHKVYACEVTHQGLSSPVTKSFNRGEC
chain: not shown
modifications: Protease-treated product: both masks and the anti-albumin domain are cut off in the cleavable linkers.
notes: not shown: The few linker residues left at the N-terminus of each chain after the MTSP1 cut
EC50 [1]: 250 pM

B3: PC-1 + MTSP1 (bispecific antibody)
light: DIQLTQSPSSLSASVGDRVSITCKASQDVSIAVAWYQQKPGKAPKLLIYSASYRYTGVPDRFSGSGSGTDFTLTISSLQPEDFAVYYCQQHYITPLTFGAGTKVEIKRTVAAPSVFIFPPSDEQLKSGTASVVCLLNNFYPREAKVQWKVDNALQSGNSQESVTEQDSKDSTYSLSSTLTLSKADYEKHKVYACEVTHQGLSSPVTKSFNRGEC
chain: not shown
modifications: Protease-treated product: both masks and the anti-albumin domain are cut off in the cleavable linkers.
notes: as for B2
EC50 [2]: 480 pM

More lines, main results first:

CyTROP2 HEK293 EC50 (pM) (Cyno TROP2 Full length): 0.1 pM
B1: TCE-8 (bispecific antibody)
light: DIQLTQSPSSLSASVGDRVSITCKASQDVSIAVAWYQQKPGKAPKLLIYSASYRYTGVPDRFSGSGSGTDFTLTISSLQPEDFAVYYCQQHYITPLTFGAGTKVEIKRTVAAPSVFIFPPSDEQLKSGTASVVCLLNNFYPREAKVQWKVDNALQSGNSQESVTEQDSKDSTYSLSSTLTLSKADYEKHKVYACEVTHQGLSSPVTKSFNRGEC
heavy: not shown
HCT116 Cytotoxicity EC50 (pM) (Human TROP2 Full length): 83 pM

EC50 [3]: 350 pM | EC50 (Peptide-67): 1760 pM | EC50 (Peptide-69): 8730 pM | EC50 (Peptide-68): 1780 pM | EC50 (Peptide-71): 630 pM | EC50 (Peptide-72): 1850 pM | EC50 (Peptide-66): 580 pM | EC50 (Peptide-75): 760 pM | EC50 (Peptide-65): 473000 pM | EC50 (Peptide-74): 680 pM
B4: TCE-10 (anti-CD3 scFv R100A; anti-TROP2 wt) (bispecific antibody)
light: DIQLTQSPSSLSASVGDRVSITCKASQDVSIAVAWYQQKPGKAPKLLIYSASYRYTGVPDRFSGSGSGTDFTLTISSLQPEDFAVYYCQQHYITPLTFGAGTKVEIKRTVAAPSVFIFPPSDEQLKSGTASVVCLLNNFYPREAKVQWKVDNALQSGNSQESVTEQDSKDSTYSLSSTLTLSKADYEKHKVYACEVTHQGLSSPVTKSFNRGEC
heavy: not shown
notes: scFv on the Fab heavy chain; also called TCE-10 (R100A)
